Test results published in patent publication US20240392003A1 (NUMAB THERAPEUTICS, published 2024).
Residue numbers refer to the chain shown, from its start. Read-outs that look alike come from different tables or passages of the source.

Columns and labels:
[1] = target: T1, human ROR1 expressed on cells (human, UniProt Q01973 30-937); test: cell-based or functional assay
[2] = target: T1, human ROR1 expressed on cells; test: cell-based or functional assay; remark: listed apart in the source
[3] = target: T1, human ROR1 expressed on cells; test: cell-based or functional assay; remark: listed apart in the source
[4] = target: T2, recombinant human ROR1 protein (Fc-Tag, Acro Biosystems RO1-H5250) (human, UniProt Q01973 30-406); test: SPR; hROR1-Fc immobilized (Avidity)
T2 construct: Bought; also called hROR1; recombinant human ROR1 ECD; not shown: Fc tag

[5] = target: T3, recombinant human CD3 epsilon extra-cellular domain protein (His-Tag, SinoBiological) (human, UniProt P07766 23-126); test: SPR; hCD3ε immobilized, two-state fit
T3 construct: extracellular domain; Bought; also called hCD3ε; human CD3ε; not shown: His tag

[6] = target: T3, recombinant human CD3 epsilon …; test: SPR; hCD3ε immobilized, two-state fit (Ka1)
[7] = target: T3, recombinant human CD3 epsilon …; test: SPR; hCD3ε immobilized, two-state fit (kd1)
[8] = target: T1, human ROR1 expressed on cells; test: flow cytometry, MDA-MB-231 cells, 1 mg/ml hSA
Method: After incubation at 4° C. for 1 h in presence of 1 mg/ml of human serum albumin (hSA), plates were washed and incubated with specific detection antibodies.
The binding of MATCH4 molecules to plasma membrane-based human ROR1 was assessed by flow cytometry. The calculated EC₅₀, rel.

[9] = target: T4, human ROR1 (Peprotech 160-054) (human, UniProt Q01973 30-406); test: SPR; MATCH4 captured, hROR1 analyte (Affinity)
T4 construct: Bought, used as analyte; also called hROR1; recombinant human ROR1 protein
Method: Binding affinity without avidity was determined by using a proprietary anti-framework rabbit IgG (rlgG21-57-20-B11) immobilized to a carboxymethylated dextran surface (CM5 sensorchip; Biacore, Cytiva) to capture the MATCH4 molecules on the surface. A titration series of human ROR1 (Peprotech 160-054) molecule was injected as analyte. After each capture-analyte injection cycle, every flow channel on the sensor chip was regenerated (3 M MgCl₂), and a MATCH4 molecule was captured again followed by a different concentration of human ROR1. The binding kinetics to human ROR1 were measured using a multi-cycle kinetic assay, with ten analyte concentrations ranging from 0.088 to 90 nM, 1:2 diluted in running buffer (HEPES buffered saline, 0.05% Tween-20, pH 7.5; Bioconcept).
For both assays, the apparent dissociation (kd) and association (kₐ) rate constants and the apparent dissociation equilibrium constant (KD) were calculated with the Biacore analysis software (Biacore Evaluation software Version 3.2, Cytiva) using a one-to-one Langmuir binding model and quality of the fits was monitored based on Chi2 and U-value, which are measures for the quality of the curve fitting. The binding level was calculated as the maximum stability binding achieved normalized to the theoretical Rmax.

[10] = target: T1, human ROR1 expressed on cells; test: flow cytometry, JIMT-1 cells (ROR1-positive)

B1: PRO2591 (bispecific antibody)
chain 1: AQQLTQSPSSLSASVGDRVTITCQASQNVWNNNYLSWFQQKPGKPPKLLIVTASTLASGVSSRFSGSGSGTDFTLTISSLQPEDFATYYCAGGFSGEIRAFGTGTKVTVLGGGGGSGGGGSGGGGSGGGGSQSQLVESGGGLVQPGGSLRLSCAVSGIDLSRNAMSWVRQAPGKGLEWIGIILTSGSTYYASWAKGRFTISKTSTTLDLQMNSLRAEDTAVYFCVRGIASSSLKSFWGQGTLVTVSSGGGGSGGGGSAFELTQSPSSLSASVGDRVTITCQASESINSRLAWYQQKPGQPPKLLIYDASDLTSGVPSRFSGSGSGTDFTLTISSLQPEDFATYYCQGYGGSSTTTFGCGTKLTVLGGGSGGSDIQMTQSPSSLSASVGDRVTITCQSSQSVFSNNYLAWFQQKPGQSPKRLIYSASTLASGVPSRFSGSGSGTDFTLTISSLQPEDFATYYCLGSYACSSADCYVFGTGTKVTVLG
chain 2: AQQLTQSPSSLSASVGDRVTITCQASQNVWNNNYLSWFQQKPGKPPKLLIVTASTLASGVSSRFSGSGSGTDFTLTISSLQPEDFATYYCAGGFSGEIRAFGTGTKVTVLGGGGGSGGGGSGGGGSGGGGSQSQLVESGGGLVQPGGSLRLSCAVSGIDLSRNAMSWVRQAPGKGLEWIGIILTSGSTYYASWAKGRFTISKTSTTLDLQMNSLRAEDTAVYFCVRGIASSSLKSFWGQGTLVTVSSGGGGSGGGGSEVQLVESGGGLVQPGGSLRLSCAASGFSLSSYDMSWVRQAPGKGLAWIGASYASGPTYYASWAKGRFTISRDNSKNTVYLQMNSLRAEDTATYFCARGGWTGTSHSNIWGQGTLVTVSSGGGSGGGSGGGSGEVQLVESGGGLVQPGGSLRLSCAASGFSLSSYAMNWVRQAPGKCLEWIGHINAGDIAYYATWAKGRFTISRDNSKNTVYLQMNSLRAEDTAVYFCARGAGGFSTGPFKLWGQGTLVTVSS
notes: heterodimeric MATCH4, bivalent for ROR1, monovalent for CD3 and hSA; also called MATCH4 with 55-39-G02-sc03 / 19-04-A10-sc06 / 28-21-D09-sc04 / 55-39-G02-sc03
- Avg. % max. lysis (JIMT-1) [1]: 34.5%
- Avg. % max. lysis (MDA-MB-231) [1]: 47.2%
- Avg. % max. lysis (SKOV3) [1]: 58.7%
- Avg. EC50 (nM) CD8 T cell act. (MDA-MB-231) [1]: 0.01 nM
- Avg. EC50 (nM) CD8 T cell act. (SKOV3) [1]: 0.68 nM
- Avg. EC50 (nM) Cytotoxicity (JIMT-1) [1]: 2.4 nM
- Avg. EC50 (nM) Cytotoxicity (MDA-MB-231) [1]: 0.011 nM
- Avg. EC50 (nM) Cytotoxicity (SKOV3) [1]: 3.5 nM
- Avg. % max. CD8 T cell act. (JIMT-1) [2]: 20.3%
- Avg. % max. CD8 T cell act. (MDA-MB-231) [2]: 67.5%
- Avg. % max. CD8 T cell act. (SKOV3) [2]: 62.7%
- Avg. EC50 (nM) CD8 T cell act. (JIMT-1) [2]: 4.6 nM
- Avg. EC50 (nM) CD8 T cell act. (MDA-MB-231) [2]: 0.01 nM
- Avg. EC50 (nM) CD8 T cell act. (SKOV3) [2]: 0.68 nM
- Avg. % max. CD4 T cell act. (JIMT-1) [3]: 30.5%
- Avg. % max. CD4 T cell act. (MDA-MB-231) [3]: 80.3%
- Avg. % max. CD4 T cell act. (SKOV3) [3]: 78.7%
- Avg. EC50 (nM) CD4 T cell act. (JIMT-1) [3]: 3.9 nM
- Avg. EC50 (nM) CD4 T cell act. (MDA-MB-231) [3]: 0.005 nM
- Avg. EC50 (nM) CD4 T cell act. (SKOV3) [3]: 0.38 nM
- Kd [4]: 0.0227 nM
- koff [4]: 4.1e-05 s⁻¹
- kon [4]: 1.81e+06 M⁻¹ s⁻¹
- Ka2 [5]: 0.0027 s⁻¹
- Kd [5]: 4.7 nM
- Kd2 [5]: 0.0024 s⁻¹
- kon [6]: 420000 M⁻¹ s⁻¹
- koff [7]: 0.00423 s⁻¹
- EC50 [8]: 0.28 nM
- Rel. maximum binding (MFIMATCH4/MFIPRO2213) [8]: 2.21
- rel. EC50 (EC50, PRO2213/EC50, MATCH4) [8]: 2.45
- Kd [9]: 3.2 nM
- koff [9]: 0.00034 s⁻¹
- kon [9]: 110000 M⁻¹ s⁻¹
- EC50 (read off the curve) [10]: ~0.5 nM

B2: PRO2592 (bispecific antibody)
chain 1: B1 chain 1 with T103C, G175C
chain 2: B1 chain 2 with T103C, G175C
notes: heterodimeric MATCH4, bivalent for ROR1, monovalent for CD3 and hSA; also called MATCH4 with 55-39-G02-sc06 / 19-04-A10-sc06 / 28-21-D09-sc04 / 55-39-G02-sc06
- Avg. % max. lysis (JIMT-1) [1]: 24.9%
- Avg. % max. lysis (MDA-MB-231) [1]: 47.1%
- Avg. % max. lysis (SKOV3) [1]: 44.7%
- Avg. EC50 (nM) CD8 T cell act. (MDA-MB-231) [1]: 0.011 nM
- Avg. EC50 (nM) CD8 T cell act. (SKOV3) [1]: 1.6 nM
- Avg. EC50 (nM) Cytotoxicity (JIMT-1) [1]: 3.3 nM
- Avg. EC50 (nM) Cytotoxicity (MDA-MB-231) [1]: 0.008 nM
- Avg. EC50 (nM) Cytotoxicity (SKOV3) [1]: 5.37 nM
- Avg. % max. CD8 T cell act. (JIMT-1) [2]: 15.5%
- Avg. % max. CD8 T cell act. (MDA-MB-231) [2]: 67%
- Avg. % max. CD8 T cell act. (SKOV3) [2]: 54.7%
- Avg. EC50 (nM) CD8 T cell act. (JIMT-1) [2]: 9.8 nM
- Avg. EC50 (nM) CD8 T cell act. (MDA-MB-231) [2]: 0.011 nM
- Avg. EC50 (nM) CD8 T cell act. (SKOV3) [2]: 1.6 nM
- Avg. % max. CD4 T cell act. (JIMT-1) [3]: 23%
- Avg. % max. CD4 T cell act. (MDA-MB-231) [3]: 79%
- Avg. % max. CD4 T cell act. (SKOV3) [3]: 75%
- Avg. EC50 (nM) CD4 T cell act. (JIMT-1) [3]: 9.1 nM
- Avg. EC50 (nM) CD4 T cell act. (MDA-MB-231) [3]: 0.005 nM
- Avg. EC50 (nM) CD4 T cell act. (SKOV3) [3]: 0.76 nM
- Kd [4]: 0.0287 nM
- koff [4]: 5.69e-05 s⁻¹
- kon [4]: 1.98e+06 M⁻¹ s⁻¹
- Ka2 [5]: 0.0036 s⁻¹
- Kd [5]: 6.3 nM
- Kd2 [5]: 0.0036 s⁻¹
- kon [6]: 430000 M⁻¹ s⁻¹
- koff [7]: 0.0055 s⁻¹
- EC50 [8]: 0.72 nM
- Rel. maximum binding (MFIMATCH4/MFIPRO2213) [8]: 2.41
- rel. EC50 (EC50, PRO2213/EC50, MATCH4) [8]: 0.94
- Kd [9]: 5 nM
- koff [9]: 0.00049 s⁻¹
- kon [9]: 98000 M⁻¹ s⁻¹
- EC50 (read off the curve) [10]: ~0.5 nM
